Here are results for 2 substances from publication PMC10121901.

The target of assay [1] is CA-N21C A22C (CA spheres) (HIV-1). Briefly: negative-stain EM of NuPODs mixed with CA assemblies.
Assay [2] shares this target. Briefly: co-sedimentation.
Assay [3] has as its target CA-A14C E45C (disulfide-crosslinked CA tubes; also assembled into cones with IP6) (HIV-1). The assay can be described thus: negative-stain EM of NuPODs mixed with CA assemblies.

As to “MBP-Nup153^(CTD, aa 896–1475) (from UniProt P49790 896-1475) (domain or fragment)”, the fold preference for binding to spheres over tubes (NuPODs in excess) in assay [1] turned out to be 60 fold. The same substance came in with a percent of NuPODs in the supernatant (with the CA spheres) in assay [2] of 95%.
With “Nup358^(RBD4-CycH, aa 2911–3225) (from UniProt P49792 2911-3224) (domain or fragment)”, the percent of NuPODs bound to CA spheres and CA tubes at the same time in assay [3] and in assay [1] was 20 to 50% throughout.
